# Measured values: patent US20240294613A1 (BROAD INSTITUTE, published 2024)
# B1: BG7-15 (antibody, V domains shown)
# VH: QVQLVQSGAEVKKPGASVKVSCKASGYTFTSYAISWVRQAPGQGLEWMGWVSAYNGNTNYAQKLQGRVTMTTDTSTNTAYMELRSLRSDDTAIYYCAIPYSSVTFDCWGQGTLVTVSS
# VL: EIVLTQSPGTLSLSPGERATLSCRASQSVSGTFLAWYQQKPGQAPRLLISGASSRATGIPDRFSGSGSGTDFTLTISRLEPEDFAVYYCQQYGSSRPTFGQGTKLEIKR
# B2: BG7-18 (antibody, V domains shown)
# VH: EVQLMESGGGLIQPGGSLRLSCAASGFIVSSNYMSWVRQAPGKGLEWVSVIYSGGGTDYADSVKGRFTISRDNSKNTLFLQMNSLRAEDTAVYYCARGAAMVKELFDYWGQGTQVTVSS
# VL: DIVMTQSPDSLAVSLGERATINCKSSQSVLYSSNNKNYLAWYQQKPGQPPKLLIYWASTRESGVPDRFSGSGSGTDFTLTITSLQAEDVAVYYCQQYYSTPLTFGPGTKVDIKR
# Biological target: SARS-COV-2 spike on authentic SARS-COV-2 virus (SARS-COV-2, UniProt P0DTC2 14-1273)
# Assay: cell-based or functional assay
row,Binder,LV IC50
1,B1,0.114 µg/mL
2,B2,0.115 µg/mL
